In the supplement of paper PMC10724198:
± gives the standard deviation of the averaged measurements.

System: Saccharomyces cerevisiae
Experiment: protein stability index of tFT-peptide fusion (C-terminal peptide) (PSI (0-1 scale)); higher = more stable (slower turnover)
Settings: genetic background: wild type; temperature: 30 C
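Also: PSI is a weighted mean of sequencing reads over stability bins, variants kept only with over 10 reads, mCherry proximal and sfGFP distal, peptide attached via GGGS linker.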

Row | Sequence | protein stability index
1 | GLVRWRWGDRPS | 0.56 ± 0.066
2 | PPPPPAPLLLLP | 0.78 ± 0.1
3 | PDGGFSSVVSLR | 0.686 ± 0.076
4 | FFITFGFSSGSR | 0.675 ± 0.068
5 | PPLPPPPPPFPP | 0.5534 ± 0.0012
6 | TRSPTVAMRPKE | 0.676 ± 0.036
7 | PPSPPPPPSSPP | 0.707 ± 0.071
8 | VNIHVCSYGIFA | 0.5071 ± 0.0025
9 | LLPLTWTTVQGP | 0.694 ± 0.027
10 | RINIDLKKIAKK | 0.689 ± 0.05
11 | YASLPQSRPLSP | 0.651 ± 0.013
12 | GGAGSVAGVWAV | 0.673 ± 0.069
13 | PATRHSRLPPAS | 0.67 ± 0.018
14 | RGGPTRVSLPPR | 0.654 ± 0.016
15 | VLFSSDLIVPQL | 0.725 ± 0.018
16 | IGHVVTWCFGRV | 0.6898 ± 0.0041
17 | KNEESTKREGHF | 0.669 ± 0.063
18 | DVGWRATGVLGG | 0.7106 ± 0.0052
19 | TKKKPGEPGKRK | 0.666 ± 0.013
20 | LVKLGSTLSGVG | 0.582 ± 0.026
21 | VPRTPPTTSWFP | 0.682 ± 0.026
22 | SPPSPSPSPRPL | 0.669 ± 0.03
23 | SYLPLGTVLMLG | 0.681 ± 0.032
24 | EKKKKKTAKQLK | 0.671 ± 0.085
25 | KQRKIKKNIINH | 0.707 ± 0.015

Row | Sequence | protein stability index
26 | RSSGAFKVCTDR | 0.684 ± 0.019
27 | YKGNVRNPTLHA | 0.655 ± 0.05
28 | NGLRILICNTTP | 0.697 ± 0.03
29 | RGWWVLCGGGWG | 0.567 ± 0.026
30 | TSPVCPARPRQL | 0.646 ± 0.042
31 | SSFPPAPHAPHD | 0.739 ± 0.03
32 | PAPPPPPPPPLH | 0.701 ± 0.083
33 | SPGLLPPPTSAF | 0.71 ± 0.017
34 | RSPPPSLTPSPL | 0.68193 ± 0.00027
35 | GIWVWRGARSVG | 0.745 ± 0.054
36 | LGKVAGLGAGRP | 0.719 ± 0.034
37 | YSWGVLSWLSFG | 0.648 ± 0.0074
38 | LHGFYSKKAINR | 0.701 ± 0.031
39 | PLTVPLPSPRLI | 0.645 ± 0.1
40 | FVLWFTSSGCSN | 0.7598 ± 0.0039
41 | LLFLGSSLRDTF | 0.759 ± 0.0098
42 | TRICFPRFPPAP | 0.703 ± 0.044
43 | QTGGPDPSGPPK | 0.693 ± 0.03
44 | PSPLPSPPPPPP | 0.625 ± 0.0074
45 | VFVLEGSSTPRS | 0.6487 ± 0.0011
46 | FPLFRSLLLFAP | 0.5331 ± 0.00081
47 | VGLGFVVNAPGL | 0.73 ± 0.1
48 | PQPLESTVDHRL | 0.7192 ± 0.0062
49 | FLVREGIGKRGC | 0.641 ± 0.072
50 | PPPPPRPPRLLS | 0.651 ± 0.1

Row | Sequence | protein stability index
51 | ERFRWRRNRSLG | 0.672 ± 0.16
52 | SENEGEGIYVRM | 0.672 ± 0.065
53 | EVWSYCPAFFVD | 0.736 ± 0.016
54 | QRGGVGWILGGV | 0.675 ± 0.034
55 | RCGGGKWWRGAE | 0.6566 ± 0.0035
56 | RLPSPPTAPAPP | 0.658 ± 0.0084
57 | RSFLTDLLRGAA | 0.647 ± 0.054
58 | LLFFRSPFSLVS | 0.6465 ± 0.0059
59 | PPLLPTPRPPPP | 0.65 ± 0.037
60 | VVVGPVTKRGGH | 0.68 ± 0.046
61 | GYLPPPDSLSSS | 0.672 ± 0.023
62 | FGASSGSARVCG | 0.682 ± 0.083
63 | VQQSRTQKDQHV | 0.623 ± 0.054
64 | VFFDLALRWYGV | 0.748 ± 0.082
65 | GGCGGVGGWGVA | 0.712 ± 0.066
66 | PPPFPPPSFASR | 0.696 ± 0.057
67 | DLIRIRHACGFL | 0.663 ± 0.048
68 | PPAPPPRLPSPP | 0.713 ± 0.098
69 | PRSAMTRHSSCR | 0.65 ± 0.017
70 | ITRKKLEISVDK | 0.685 ± 0.04
71 | GLADPPNSRPAG | 0.673 ± 0.05
72 | SVTTNDQLPCHS | 0.691 ± 0.026
73 | ICEYGLKRKIHF | 0.68199 ± 0.0006
74 | LAFFEFVVDSLG | 0.677 ± 0.018
75 | QSTRPHSHGCLG | 0.748 ± 0.051

Row | Sequence | protein stability index
76 | SKVLKSKSTGRG | 0.75 ± 0.11
77 | RLEKGEDREGKK | 0.641 ± 0.085
78 | SSAPPPPPRPLP | 0.588 ± 0.052
79 | GTGSRFRCLERS | 0.739 ± 0.031
80 | FVCRRDIMSGIF | 0.6565 ± 0.0052
81 | HPPTLPPLPIPP | 0.625 ± 0.0091
82 | RDRFSWGRRSDN | 0.696 ± 0.041
83 | HLPPPPTPFPLT | 0.757 ± 0.16
84 | LVLVASVGVGRV | 0.556 ± 0.057
85 | FTCSAIIHVCGL | 0.571 ± 0.035
86 | HCSYSSSRPSPR | 0.543 ± 0.043
87 | EGEVGGVVLPRI | 0.696 ± 0.04
88 | KSRVCSPSNEPS | 0.7443 ± 0.0074
89 | TSPSLSALLSFV | 0.715 ± 0.073
90 | SPTPPPTSPSRP | 0.728 ± 0.11
91 | NHIASQASRRGR | 0.637 ± 0.069
92 | PSYSFQYRLIQD | 0.712 ± 0.038
93 | SVGGVGGAVGGG | 0.663 ± 0.014
94 | NSLLSFLPDPFH | 0.749 ± 0.0096
95 | RGPPRRLQCLGR | 0.7121 ± 0.003
96 | LPLLALLDVPLP | 0.683 ± 0.018
97 | TLSSPPPPPPPP | 0.663 ± 0.046
98 | TIVRTTLLEIWR | 0.619 ± 0.04
99 | IKNSCAGCTRDV | 0.671 ± 0.035
100 | VGGGCGVRVVVV | 0.684 ± 0.05

Row | Sequence | protein stability index
101 | GVLDTRWIIIST | 0.53 ± 0.029
102 | PRSSPEPTCQDP | 0.647 ± 0.099
103 | TPSPHTPLPLAP | 0.708 ± 0.09
104 | NIKKKINNTVKN | 0.666 ± 0.0073
105 | ETEKHGIRRRQG | 0.644 ± 0.027
106 | RCGSWKGVRGVM | 0.693 ± 0.032
107 | GWGVGGKVGQAG | 0.6814 ± 0.0047
108 | RNRAGHVGCYGL | 0.6989 ± 0.0066
109 | EVESYVVSGDRW | 0.608 ± 0.042
110 | LKPGYQGQHKED | 0.7 ± 0.029
111 | PLPSPDLPLTHH | 0.679 ± 0.025
112 | GVSPSCILPLIL | 0.653 ± 0.011
113 | RSHPSPPPVILY | 0.686 ± 0.045
114 | HPPKPHHPSNPC | 0.691 ± 0.034
115 | GKVTRGTRRGGK | 0.66901 ± 0.0003
116 | GVFAGGLWCVGF | 0.657 ± 0.087
117 | PPSVPPPLPHPV | 0.74 ± 0.037
118 | PPPPPAPPPVSI | 0.659 ± 0.071
119 | QFTLLEFVRSMG | 0.613 ± 0.032
120 | LCPNFFFFSSSP | 0.75 ± 0.017
121 | SQTRIKPREETA | 0.653 ± 0.031
122 | TWCSFHFYSFWC | 0.578 ± 0.01
123 | RSLRSSRSGTLA | 0.848 ± 0.014
124 | SVVGHGVCGGRG | 0.649 ± 0.11
125 | SISVLSSSSLGF | 0.741 ± 0.12

Row | Sequence | protein stability index
126 | GDWLVVRLVPSK | 0.728 ± 0.013
127 | VFPPRPPRAFPP | 0.662 ± 0.00098
128 | EKERRATCPGRK | 0.652 ± 0.051
129 | SSVEREEEGGGG | 0.676 ± 0.11
130 | IHLSVYPLQPSC | 0.76 ± 0.04
131 | GSCLLCGACGCR | 0.692 ± 0.061
132 | PSRSCSAPLHPN | 0.78 ± 0.056
133 | PAFVPPFTPATP | 0.76 ± 0.033
134 | IPHHFSPPLPSP | 0.772 ± 0.082
135 | EGGRGGGRGVVG | 0.67 ± 0.027
136 | VEEKDNNVRYVL | 0.697 ± 0.025
137 | PLPLPFGPPSLP | 0.753 ± 0.15
138 | PICCPLILTRSL | 0.706 ± 0.019
139 | ILLSHRLQVSSC | 0.564 ± 0.035
140 | IVRMLTCGVGWD | 0.581 ± 0.016
141 | ALFPRLVRPGFV | 0.697 ± 0.036
142 | LCSLWWGLVSGW | 0.652 ± 0.029
143 | RESSAYPPPGEG | 0.6551 ± 0.005
144 | PLFSASLFSLSL | 0.747 ± 0.068
145 | CLMHTENCIRKA | 0.674 ± 0.032
146 | AVCVSVCGRLLV | 0.5492 ± 0.0023
